Data set [1] deals with complex of SEQ ID NO: 12 and SEQ ID NO: 16 (MBP-AK / MBP-AKA) (Ustilago maydis, UniProt A0A0D1E894). The experiment in a line: IMAP fluorescence polarization assay, inhibitor measurement of aurora kinase activity. Format: biochemical, U. maydis. As for the experimental part: Assay 3: For the commercially available IMAP Assay (Molecular Devices), 2 substrates for human aurora kinases (Kemptide, Cat #R7331, sequence 5TAMRA-LRRASLG-OH and PKAtide, Cat #R7250, Lot #130188, sequence 5FAM-GRTGRRNSI-NH2) may be purchased commercially. The assay was carried out in accordance with the instructions of the manufacturer.
complex of SEQ ID NO: 12 and SEQ ID NO: 16 (MBP-AK / MBP-AKA), sequence (A0A0D1E894 entry or part of it, one chain of several): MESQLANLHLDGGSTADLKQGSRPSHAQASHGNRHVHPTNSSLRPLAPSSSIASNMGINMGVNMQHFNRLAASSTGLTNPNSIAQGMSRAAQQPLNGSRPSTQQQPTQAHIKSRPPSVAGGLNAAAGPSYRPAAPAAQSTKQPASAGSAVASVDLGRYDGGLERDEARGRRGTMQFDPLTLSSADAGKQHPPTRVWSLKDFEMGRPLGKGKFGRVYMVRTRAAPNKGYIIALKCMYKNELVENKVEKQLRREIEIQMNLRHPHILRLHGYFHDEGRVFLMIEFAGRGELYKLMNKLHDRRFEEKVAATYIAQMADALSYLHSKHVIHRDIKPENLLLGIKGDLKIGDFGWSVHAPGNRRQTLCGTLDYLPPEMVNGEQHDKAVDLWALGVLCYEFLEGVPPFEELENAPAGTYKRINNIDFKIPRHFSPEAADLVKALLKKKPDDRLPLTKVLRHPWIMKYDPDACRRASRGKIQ
The IMAP fluorescence polarization assay (Molecular Devices) is based on the specific high-affinity interaction between phosphate groups and trivalent metal ions. The kinase reaction phospholrylates a fluorescent substrate which is then specifically bonded by the metal beads present in the stop solution. This interaction increases the fluorescence polarization, which allows kinase activity to be determined. The assay was carried out in accordance with the instructions of the manufacturer as follows:
1 Vol. of inhibitor in 4% DMSO or 4% DMSO
1 Vol. of enzyme solution
Enzyme solution: for example SEQ ID NO: 12 and SEQ ID NO: 16 (1:1) in Complete Reaction Buffer ATP/substrate: 70 μM ATP/200 nM FAM-PKAtide or TAMRA-Kemptide in Complete Reaction Buffer
Fluorescence polarization was measured in a Tecan Ultra microtitre plate fluorimeter using the following measurement parameters:
Unless indicated otherwise, the activity of the AK was determined by the IMAP method as described under General Methods. […]

Data set [2] concerns SEQ ID NO: 16 (MBP-AKA fusion protein; C terminus of aurora kinase activator um03367 of U. maydis with TAG).

Take `CN[C@@H]1C[C@H]2O[C@@](C)([C@@H]1OC)n1c3ccccc3c3c4c(c5c6ccccc6n2c5c31)C(=O)NC4` [staurosporine]: the half-maximal inhibitory concentration (IC50) in data set [1] amounted to 2.1 nM. This lies in the single-digit nanomolar range.
Consider “SEQ ID NO: 12 (MBP-AK fusion protein; aurora kinase um10119 of U. maydis with TAG)”, for which, in data set [2], the “AK activity, radioactive assay (phosphorylation of basic myelin protein)” value is given as “SEQ ID NO: 12 in the presence of SEQ ID NO: 16 shows AK activity”; the “phosphorylation of basic myelin protein, PKAtide and Kemptide (IMAP fluorescence polarization assays)” value was “The purified complex of MBP-SEQ ID NO: 12 and MBP-SEQ ID NO: 16 was capable of phosphorylating both basic myelin protein and the substrates for human aurora kinases, PKAtide and Kemptide”; the “phosphorylation of substrates for human aurora kinase A (IMAP assay)” value is listed as “Both substrates for human aurora kinase A were phosphorylated by SEQ ID NO: 12 in the presence of SEQ ID NO: 16”.

The IC50 is the concentration needed to halve the response being measured. Low values mean higher potency, high ones lower potency.
